The source of these data is patent US20090181018A1 (Eli Lilly, published 2009).

In one test the target is T1, human des-acyl ghrelin (human).
T1 construct: also called unacylated human ghrelin
The test is described as follows: SPR (BIAcore 2000), Mab amine-coupled to CM5 chip, des-acyl ghrelin as analyte, about 25 C. Here is the method: (§1) Except where noted, all reagents and materials are purchased from BIAcore® AB (Uppsala, Sweden). All measurements are performed at about 25° C. All samples containing human ghrelin (full length, C-8 acylated or des-acyl) and anti-ghrelin Mabs are diluted in HBS-EP buffer (150 mM sodium chloride, 3 mM EDTA, 0.005% (w/v) surfactant P-20, and 10 mM HEPES, pH 7.4). For all of the Mabs, the antibody is directly coupled to a CM5 chip using the amine-coupling chemistry described below, aiming for a surface density of between 800-1000 response units (RU). Flow cells (1-4) are activated for 7 minutes with a 1:1 mixture of 0.1 M N-hydroxysuccinimide and 0.1 M 3-(N,N-dimethylamino)propyl-N-ethylcarbodiimide at a flow rate of 10 μl/min. The Mab is diluted to 10 μg/mL in 10 mM sodium acetate, pH 4.5, and manually injected over all four flow cells at a flow rate of 10 μl/min. The surface density is monitored, and additional capture antibody is injected as needed to each individual cell until all flow cells reach a surface density of 800-1000 RU. Surfaces are blocked with a seven minute injection of 1 M ethanolamine-HCl, pH 8.5(10 μl/min). To ensure complete removal of any noncovalently bound capture antibody, 15 μl of 10 mM glycine, pH 1.5, are injected twice. Running buffer for kinetic experiments is HBS-EP buffer (150 mM sodium chloride, 3 mM EDTA, 0.005% (w/v) surfactant P-20, and 10 mM HEPES, pH 7.4).
(§2) Collection of kinetic binding data is performed at maximum flow rate (100 μl/min) and a low surface density to minimize mass transport effects. Each analysis cycle consists of: (i) 200 μl injection (2 min.) of ghrelin (concentration range of 50 nM to 0.39 nM in 2-fold dilution increments) over all four flow cells with flow cell 1 as the reference flow cell; (ii) 20 min. dissociation (buffer only flow); (iii) regeneration of chip surface with a 15 sec injection of 10 mM glycine, pH 1.5; and (iv) a 2 min. stabilization time before the start of the next cycle. The signal is monitored as flow cell 2 minus flow cell 1, flow cell 3 minus flow cell 1, and flow cell 4 minus flow cell 1. Samples and a buffer blank are injected in duplicate in a random order. Data are processed using BIAevaluation v.4.1 software and data are fit to a 1:1 binding model in either BIAevaluation v.4.1 or CLAMP global analysis software.

Test [1] addresses T2, C-8 acylated human ghrelin (1-28) (human, n-octanoyl (C8) group on Ser3).
T2 construct: 28-residue ghrelin, octanoylated at Ser3; the analyte in SPR and the agonist in the FLIPR assay; also called C8 acylated ghrelin; full length, C-8 acylated human ghrelin
The test is described as follows: SPR (BIAcore 2000), Fab captured by goat anti-human kappa, ghrelin as analyte, about 25 C. Here is the method:
The affinity (KD) of humanized/optimized anti-ghrelin Fabs disclosed in Example 1 for C-8 acylated human ghrelin (1-28) is measured using a BIAcore™ 2000 instrument containing a CM5 sensor chip. Except where noted, all reagents and materials are purchased from BIAcore™ AB (Uppsala, Sweden). Measurements are performed at about 25° C. Samples containing human ghrelin are dissolved in HBS-EP buffer (150 mM sodium chloride, 3 mM EDTA, 0.005% (w/v) surfactant P-20, and 10 mM HEPES, pH 7.4). A capture antibody, goat anti-mouse Kappa (Southern Biotechnology, Inc.) for the D4 and D4 7.1 Fabs, and goat anti-human kappa (Jackson ImmunoResearch) for all other Fabs, hereafter termed “capture antibody,” is immobilized onto flow cells using amine-coupling chemistry. Flow cells (1-4) are activated for 7 minutes with a 1:1 mixture of 0.1 M N-hydroxysuccinimide and 0.1 M 3-(N,N-dimethylamino)propyl-N-ethylcarbodiimide at a flow rate of 10 μl/min. Goat anti-mouse Kappa or goat anti-human kappa (30 μg/mL in 10 mM sodium acetate, pH 4.5) is manually injected over all 4 flow cells at a flow rate of 10 μl/min. The surface density is monitored and additional capture antibody is injected if needed to individual cells until all flow cells reach a surface density of 4500-5000 response units (RU). Surfaces are blocked with a 7 minute injection of 1 M ethanolamine-HCl, pH 8.5 (10 μl/min). To ensure complete removal of any noncovalently bound capture antibody, 15 μl of 10 mM glycine, pH 1.5, is injected twice. Running buffer used for kinetic experiments contains 10 mM HEPES, pH 7.4, 150 mM NaCl, 0.005% P20.
Collection of kinetic binding data is performed at maximum flow rate (100 μl/min) and a low surface density to minimize mass transport effects. Each analysis cycle consists of: (i) capture of 300-350 RU of Fabs (BioSite) by injection of 5-10 μl of 5 μg/ml solution over flow cell 2, 3 and 4 for different Fabs at a flow rate of 10 μl/min., (ii) 200 μl injection (2 min.) of human ghrelin (concentration range of 50 nM to 0.39 nM in 2-fold dilution increments) over all 4 flow cells with flow cell 1 as the reference flow cell, (iii) 20 min. dissociation (buffer flow), (iv) regeneration of capture antibody surface with a 15 seq injection of 10 mM glycine, pH 1.5, (v) a 30 sec blank injection of running buffer, and (vi) a 2 min. stabilization time before the start of the next cycle.
(In SPR one partner is held on a chip, and binding of the other changes the refractive index at the surface.)

The target in test [2] is T2, C-8 acylated human ghrelin (1-28). The test is described as follows: SPR (BIAcore 2000), Mab amine-coupled to CM5 chip, ghrelin as analyte, about 25 C. Here is the method:
as §1, §2

Test [3] has the same target. The test is described as follows: SPR (BIAcore 2000), half-life of the complex. Here is the method:
The affinity (KD) of humanized/optimized anti-ghrelin Fabs disclosed in Example 1 for C-8 acylated human ghrelin (1-28) is measured using a BIAcore™ 2000 instrument containing a CM5 sensor chip. Except where noted, all reagents and materials are purchased from BIAcore™ AB (Uppsala, Sweden). Measurements are performed at about 25° C. Samples containing human ghrelin are dissolved in HBS-EP buffer (150 mM sodium chloride, 3 mM EDTA, 0.005% (w/v) surfactant P-20, and 10 mM HEPES, pH 7.4). A capture antibody, goat anti-mouse Kappa (Southern Biotechnology, Inc.) for the D4 and D4 7.1 Fabs, and goat anti-human kappa (Jackson ImmunoResearch) for all other Fabs, hereafter termed “capture antibody,” is immobilized onto flow cells using amine-coupling chemistry. Flow cells (1-4) are activated for 7 minutes with a 1:1 mixture of 0.1 M N-hydroxysuccinimide and 0.1 M 3-(N,N-dimethylamino)propyl-N-ethylcarbodiimide at a flow rate of 10 μl/min. Goat anti-mouse Kappa or goat anti-human kappa (30 μg/mL in 10 mM sodium acetate, pH 4.5) is manually injected over all 4 flow cells at a flow rate of 10 μl/min. The surface density is monitored and additional capture antibody is injected if needed to individual cells until all flow cells reach a surface density of 4500-5000 response units (RU). Surfaces are blocked with a 7 minute injection of 1 M ethanolamine-HCl, pH 8.5 (10 μl/min). […]

For test [4] the target is unchanged. The test is described as follows: cell-based or functional assay.
Test [5] shares this target. The test is described as follows: SPR (BIAcore 2000), half-life of the complex calculated from koff. The protocol: as §1, with “Surfaces are blocked with a seven minute injection of 1 M ethanolamine-HCl, pH 8.5(10 μl/min). To ensure complete removal of any noncovalently bound capture antibody, 15 μl of 10 mM glycine, pH 1.5, are injected twice. Running buffer for kinetic experiments is HBS-EP buffer (150 mM sodium chloride, 3 mM EDTA, 0.005% (w/v) surfactant P-20, and 10 mM HEPES, pH 7.4).” left out
Collection of kinetic binding data is performed at maximum flow rate (100 μl/min) and a low surface density to minimize mass transport effects. […] The signal is monitored as flow cell 2 minus flow cell 1, flow cell 3 minus flow cell 1, and flow cell 4 minus flow cell 1. […]

Where a chain is given by its changes, count along the chain named. Names and notes keep the numbering of the source.

T1 sequence (peptide, as listed by the source): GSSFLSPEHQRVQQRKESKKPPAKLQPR

B1: Mab D52N (antibody, rat IgG1, V domains shown)
VH: QVQLVQSGAEVKKPGASVKVSCKVSGYTFTSTWMHWVRQAPGKGLEWMGYINPSTGYTEYTQKFKDRVTMTEDTSTDTAYMELSSLRSEDTAVYYCATDGYDEDYWGQGTTVTVSS
VL: DIVMTQSPLSLPVTPGEPASISCRSSDSLGHSSGHTYLSWYLQKPGQSPGLLIYKVSNRFDGVPDRFSGSGSGTDFTLKISRVEAEDVGVYYCSQSTLVPWTFGQGTKLEIKD
Broadly, the Kd is the free concentration of one partner at which half of the binding sites on the other are occupied at equilibrium, for simple one-to-one binding. Broadly, the koff is the rate constant with which the complex falls apart. The low end stands for slow dissociation, the high end for fast dissociation. A word on the kon: it is the second-order rate constant of association. A higher kon goes with faster complex formation. For the molecule B1, in the test with human des-acyl ghrelin, the Kd is 1.05 nM, the koff was 0.0343 s⁻¹ and the kon came out at 3.26e+07 M⁻¹ s⁻¹.

B2: Fab S28D (Fab, V domains shown)
VH: B1 VH with N52D
VL: DIVMTQSPLSLPVTPGEPASISCRSSDSLGHSDGNTYLSWYLQKPGQSPGLLIYKVSNRFDGVPDRFSGSGSGTDFTLKISRVEAEDVGVYYCSQSTLVPWTFGQGTKLEIK
notes: The Fab was captured by goat anti-human kappa
As to B2, in test [1], the kon came to 3e+07 M⁻¹ s⁻¹.

B3: Mab A4 (antibody, V domains shown)
VH: B1 VH with N52D, E103F
VL: B1 VL with S33T, H35F
B3 gave a kon with human des-acyl ghrelin of 4.56e+06 M⁻¹ s⁻¹. In test [2], this molecule came in with a Kd of 0.074 nM and an on-rate (kon) of 4.44e+06 M⁻¹ s⁻¹.

B4: Fab T32Y (Fab, V domains shown)
VH: B1 VH with T32Y, N52D
VL: B2 VL with D33S, N35H
notes: as for B2
Regarding B4, in test [1], the Kd was found to be 1 nM and the koff was 0.00875 s⁻¹. This molecule displayed a t1/2 in test [3] of 1 min.

B5: Fab A2 (Fab, V domains shown)
VH: B1 VH with N52D, E103F
VL: B2 VL with D33T, N35F
notes: The Fab was captured by goat anti-human kappa, so it has a human kappa light chain
For B5, in test [1], binding was put at a Kd of 0.043 nM, the koff came to 0.00027 s⁻¹ and the kon turned out to be 6.34e+06 M⁻¹ s⁻¹. Besides, the t1/2 in test [3] worked out at 43 min.

B6: Mab D27Q (antibody, rat IgG1, V domains shown)
VH: B1 VH with N52D
VL: B1 VL with D27Q
B6 gave a Kd with human des-acyl ghrelin of 0.176 nM. Besides, in test [4], the “IC50, in vitro FLIPR calcium assay (intracellular calcium in AV12 cells expressing GHS-R1a)” value stood at 1.12 nM.

B7: Mab S34H (antibody, rat IgG1, V domains shown)
VH: B1 VH with N52D
VL: B1 VL with S39H
For the molecule B7, in test [5], the t1/2 is 1 min. Further, in test [2], binding was characterised by a dissociation constant (Kd) of 0.4 nM, the koff came out at 0.0169 s⁻¹ and the kon worked out at 4.24e+07 M⁻¹ s⁻¹.

B8: Mab A5 (antibody, rat IgG1, V domains shown)
VH: B1 VH with N52D, E103Y
VL: B1 VL with S28H, S33T, H35Y
As for B8, the koff stood at 6.67e-05 s⁻¹ with human des-acyl ghrelin and 5.74e-05 s⁻¹ in test [2]. For the same molecule, in test [5], the t1/2 is 201 min.
